Test results as given in patent publication US20230363362A1, “GENETICALLY MODIFIED NON-HUMAN ANIMAL WITH HUMAN OR CHIMERIC GLP1R” (Biocytogen Pharmaceuticals (Beijing) Co., Ltd., priority 2020, published 2023).

Tests used:
human GLP1R [1] = biological target: T1, human GLP1R (Homo sapiens, UniProt P43220); experiment: In vivo drug efficacy experiment (Example 2), GLP1R gene humanized homozygous mice; set-up: species or system mouse
T1 construct: 61-1452; 1-463; expressed in transfected cells; host or cells: GLP1R gene humanized homozygous mice (C57BL/6 ES cells); The human CDS is inserted into mouse exon 1 at the endogenous Glp1r locus, under mouse regulatory elements
Procedure: (§1) Ten 7-week-old male wild-type C57BL/6 mice (WT) and ten GLP1R gene humanized homozygous mice (H/H) were selected, and randomly divided (according to body weight) into control group (G1, G3) and administration Group (G2, G4). The control group was injected subcutaneously (s.c.) phosphate buffered saline (PBS). The administration group was injected subcutaneously with 10 mg/kg GLP1R agonist Dulaglutide, administered once every two days, with a total of 5 administrations. Before each administration, the body weight and non-fasting blood glucose concentration of the mice were measured. After the second and fourth doses, the mice were fasted overnight, and the glucose tolerance test (IPGTT) was used to evaluate the tolerance of the mice to glucose by intraperitoneal injection of 2 g/kg glucose D-Glucose. Blood was collected to determine the blood glucose value at 15 min, 30 min, 60 min, 120 min after injection, and the area under the curve (AUC) was calculated.

human GLP1R [2] = biological target: T1, human GLP1R; experiment: High-fat diet induced obesity model (Example 3), GLP1R humanized homozygous mice; format: in vivo, mouse; conditions: G4 GLP1R humanized
Procedure: (§2) Twenty 7-week-old male wild-type C57BL/6 mice (WT) and twenty GLP1R humanized homozygous mice (I/H) were selected. All mice were given a high-fat diet for 12 weeks to induce obesity and high blood sugar.
(§3) On the 13th week, the mice were grouped and administered either Dulaglutide or PBS according to Table 5. The day of grouping was recorded as DO, the next day was recorded as D1, and so on for calculation. When a mouse lost more than 20% of its body weight, it was euthanized to end the experiment. The administration group was given 1 mg/kg Dulaglutide by subcutaneous injection (sc), and the control group was given the same dose of control PBS, once every two days, with a total of 5 administrations. The test protocol is as follows: the random blood glucose (RBG) concentration and body weight were measured before each administration; the mice were fasted after the second administration, and the glucose tolerance test ([…]) was carried out the next day (protocol: after the fasting blood glucose was tested, 2 g/kg D-glucose was injected intraperitoneally, and blood glucose was measured at 15 min, 30 min, 60 min and 120 min after injection; the glucose solution was prepared at the ratio of 20% mass fraction, the administration dose was 10 ul/g body weight, and the solvent was physiological saline). After the fourth administration, the mice were fasted, and the fasting blood glucose was measured on the second day; blood was collected from the canthus within 48 hours after the last administration, and the supernatant was obtained by centrifugation. The levels of serum glucagon and insulin were determined by ELISA.

human GLP1R [3] = biological target: T1, human GLP1R; conditions: background statement, no test described; cited from earlier work
mouse GLP1R [4] = biological target: T2, mouse GLP1R (Mus musculus, UniProt O35659); conditions: background statement, no test described; cited from earlier work
T2 sequence (O35659 22-463): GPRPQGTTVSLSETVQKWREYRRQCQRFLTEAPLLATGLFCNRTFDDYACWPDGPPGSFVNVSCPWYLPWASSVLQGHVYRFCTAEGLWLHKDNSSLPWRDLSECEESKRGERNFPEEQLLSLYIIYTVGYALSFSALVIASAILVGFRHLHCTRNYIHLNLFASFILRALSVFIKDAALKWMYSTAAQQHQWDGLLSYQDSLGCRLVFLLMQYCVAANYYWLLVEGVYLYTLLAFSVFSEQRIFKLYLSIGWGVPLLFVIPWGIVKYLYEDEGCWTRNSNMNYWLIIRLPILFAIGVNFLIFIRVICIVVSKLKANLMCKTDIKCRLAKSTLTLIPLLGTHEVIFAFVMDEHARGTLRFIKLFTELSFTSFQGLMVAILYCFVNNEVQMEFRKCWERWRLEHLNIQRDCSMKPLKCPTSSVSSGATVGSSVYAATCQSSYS

mouse GLP1R [5] = biological target: T2, mouse GLP1R; experiment: In vivo drug efficacy experiment (Example 2), wild-type C57BL/6 mice; set-up: Ten 7-week-old male wild-type C57BL/6 mice (WT); endogenous in cells; host or cells: wild-type C57BL/6 mice (whole animal, in vivo)
Procedure: as §1

mouse GLP1R [6] = biological target: T2, mouse GLP1R; experiment: High-fat diet induced obesity model (Example 3), wild-type C57BL/6 mice; format: in vivo; set-up: Ten 7-week-old male wild-type C57BL/6 mice (WT); endogenous in cells; host or cells: wild-type C57BL/6 mice (whole animal, in vivo)
Procedure: as §2, §3

T1 sequence (P43220 24-463): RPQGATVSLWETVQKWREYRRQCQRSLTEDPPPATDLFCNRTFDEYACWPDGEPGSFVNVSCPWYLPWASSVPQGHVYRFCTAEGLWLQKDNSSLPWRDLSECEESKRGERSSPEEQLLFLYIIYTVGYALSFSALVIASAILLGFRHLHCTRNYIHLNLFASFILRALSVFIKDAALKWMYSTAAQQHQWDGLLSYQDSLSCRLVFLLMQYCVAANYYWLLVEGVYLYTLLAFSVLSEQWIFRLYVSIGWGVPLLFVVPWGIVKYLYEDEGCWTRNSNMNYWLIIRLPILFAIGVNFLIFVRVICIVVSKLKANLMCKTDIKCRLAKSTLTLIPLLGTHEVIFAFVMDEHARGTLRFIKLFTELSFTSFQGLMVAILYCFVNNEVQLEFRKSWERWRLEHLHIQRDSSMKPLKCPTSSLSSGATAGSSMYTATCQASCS

## Dulaglutide
Human GLP1R [1]; G4, H/H mice, s.c. Q2d x 5, 10 mg/kg / 1 mg/kg (Table 5), FIG. 11
  body weight during the experiment: remained stable and did not change significantly
Human GLP1R [1]; G4 H/H vs PBS control G3, fasted overnight, s.c. Q2d x 5, FIG. 13
  fasting blood glucose: reduced
Human GLP1R [1]; G4 H/H vs PBS control G3, s.c. Q2d x 5, 10 mg/kg / 1 mg/kg (Table 5), FIG. 12
  non-fasting blood glucose: reduced
Human GLP1R [1]; H/H mice, 2 g/kg D-Glucose i.p., blood glucose 15-120 min, P≤0.05, FIG. 15
  area under the curve (AUC) of IPGTT: significant downward trend
Human GLP1R [2]; high-fat diet 12 weeks, 1 mg/kg s.c. Q2d*5, vs PBS control, FIG. 23
  body weight: decreased more significantly
Human GLP1R [2]; high-fat diet, 1 mg/kg s.c. Q2d*5, FIG. 25
  blood glucose (non-fasting): significantly reduced
Human GLP1R [2]; high-fat diet, 1 mg/kg s.c., vs control group, FIG. 24B
  food intake in the 24 hours after the first administration: significantly lower
Human GLP1R [2]; high-fat diet, 24 hours after the drug administration, FIG. 28
  plasma levels of glucagon: decreased, and the decrease was more obvious
Human GLP1R [2]; high-fat diet, 24 hours after the drug administration, FIG. 29
  level of glucagon-like peptide-1: significantly increased
Human GLP1R [2]; high-fat diet, Day 10, 15 min time point, vs control group, FIG. 27
  insulin level: tendency to increase
Human GLP1R [2]; high-fat diet, after second administration, fasted, 2 g/kg D-glucose i.p., FIG. 26
  glucose tolerance (glucose tolerance test): significantly improve
Human GLP1R [3]
  affinity for human GLP1R: has affinity
Mouse GLP1R [4]
  affinity for mouse GLP1R: has affinity
Mouse GLP1R [5]; G2, WT C57BL/6 mice, s.c. Q2d x 5, 10 mg/kg / 1 mg/kg (Table 5), FIG. 11
  body weight during the experiment: remained stable and did not change significantly
Mouse GLP1R [5]; G2 WT vs PBS control G1, fasted overnight, s.c. Q2d x 5, FIG. 13
  fasting blood glucose: reduced
Mouse GLP1R [5]; G2 WT vs PBS control G1, s.c. Q2d x 5, 10 mg/kg / 1 mg/kg (Table 5), FIG. 12
  non-fasting blood glucose: reduced
Mouse GLP1R [5]; WT mice, 2 g/kg D-Glucose i.p., blood glucose 15-120 min, P≤0.05, FIG. 15
  area under the curve (AUC) of IPGTT: significant downward trend
Mouse GLP1R [6]; G2 C57BL/6, high-fat diet 12 weeks, 1 mg/kg s.c. Q2d*5, vs PBS control, FIG. 23
  body weight: decreased more significantly
Mouse GLP1R [6]; G2 C57BL/6, high-fat diet, 1 mg/kg s.c. Q2d*5, FIG. 25
  blood glucose (non-fasting): significantly reduced
Mouse GLP1R [6]; G2 C57BL/6, high-fat diet, 1 mg/kg s.c., vs control group, FIG. 24B
  food intake in the 24 hours after the first administration: significantly lower
Mouse GLP1R [6]; G2 C57BL/6, high-fat diet, 24 hours after the drug administration, FIG. 28
  plasma levels of glucagon: decreased
Mouse GLP1R [6]; G2 C57BL/6, high-fat diet, 24 hours after the drug administration, FIG. 29
  level of glucagon-like peptide-1: significantly increased
Mouse GLP1R [6]; G2 C57BL/6, high-fat diet, Day 10, 15 min time point, vs control group, FIG. 27
  insulin level: tendency to increase
Mouse GLP1R [6]; G2 C57BL/6, high-fat diet, after second administration, fasted, 2 g/kg D-glucose i.p., FIG. 26
  glucose tolerance (glucose tolerance test): significantly improve
